The record followed here is patent publication US6958321B2, “Isolation, characterization, cloning and use of a mushroom lectin” (The Regents of the University of Michigan, priority 2001, dated 2005).

Data set [1] deals with T1, alpha-Galactosidase-digested alpha2-macroglobulin glycoprotein (from volunteer 4) (human, UniProt P01023 24-1474, terminal alpha-galactose removed with alpha-galactosidase).
T1 construct: mature; also called alpha-Galactosidase-digested glycoprotein from volunteer 4; treated fractions containing principally alpha2-macroglobulin
T1 sequence (looked up): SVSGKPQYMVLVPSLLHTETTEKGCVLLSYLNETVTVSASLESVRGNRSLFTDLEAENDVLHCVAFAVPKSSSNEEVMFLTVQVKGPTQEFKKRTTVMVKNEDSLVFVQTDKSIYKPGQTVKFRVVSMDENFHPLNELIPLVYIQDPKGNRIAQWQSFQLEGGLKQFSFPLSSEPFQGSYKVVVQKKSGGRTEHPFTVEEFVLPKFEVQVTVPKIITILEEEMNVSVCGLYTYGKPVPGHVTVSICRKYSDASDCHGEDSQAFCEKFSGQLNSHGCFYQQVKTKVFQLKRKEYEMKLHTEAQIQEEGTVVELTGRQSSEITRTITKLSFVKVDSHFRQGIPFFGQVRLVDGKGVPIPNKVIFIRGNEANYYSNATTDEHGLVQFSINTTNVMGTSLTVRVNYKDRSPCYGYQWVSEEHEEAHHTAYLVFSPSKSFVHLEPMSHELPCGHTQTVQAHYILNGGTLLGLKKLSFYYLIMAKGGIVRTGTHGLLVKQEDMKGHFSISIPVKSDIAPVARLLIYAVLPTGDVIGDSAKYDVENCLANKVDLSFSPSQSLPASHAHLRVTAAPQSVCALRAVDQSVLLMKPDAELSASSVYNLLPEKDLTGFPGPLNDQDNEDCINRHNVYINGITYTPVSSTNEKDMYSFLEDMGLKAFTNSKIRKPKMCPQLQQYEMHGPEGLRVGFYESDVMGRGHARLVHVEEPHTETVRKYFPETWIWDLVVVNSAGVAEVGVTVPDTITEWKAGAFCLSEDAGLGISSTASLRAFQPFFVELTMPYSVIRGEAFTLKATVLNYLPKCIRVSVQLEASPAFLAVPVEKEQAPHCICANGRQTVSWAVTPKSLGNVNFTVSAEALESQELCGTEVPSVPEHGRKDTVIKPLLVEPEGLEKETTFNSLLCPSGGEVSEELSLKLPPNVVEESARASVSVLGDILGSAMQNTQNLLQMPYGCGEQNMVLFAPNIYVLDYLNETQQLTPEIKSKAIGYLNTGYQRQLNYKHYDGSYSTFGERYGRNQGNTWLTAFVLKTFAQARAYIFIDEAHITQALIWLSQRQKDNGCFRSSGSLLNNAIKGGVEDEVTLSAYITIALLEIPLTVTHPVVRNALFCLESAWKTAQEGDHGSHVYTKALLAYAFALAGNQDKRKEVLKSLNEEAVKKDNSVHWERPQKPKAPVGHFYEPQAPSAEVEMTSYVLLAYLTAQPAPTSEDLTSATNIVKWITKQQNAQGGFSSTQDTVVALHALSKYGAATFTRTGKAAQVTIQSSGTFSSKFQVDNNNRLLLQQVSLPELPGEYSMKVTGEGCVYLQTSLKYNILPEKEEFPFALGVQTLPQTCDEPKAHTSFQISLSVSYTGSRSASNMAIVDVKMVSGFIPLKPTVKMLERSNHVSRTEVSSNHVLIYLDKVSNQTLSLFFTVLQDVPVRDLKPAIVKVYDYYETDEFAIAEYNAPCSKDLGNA
In words: agar gel diffusion, precipitin.

A further data set has as its target T2, Asialofetuin (UniProt P12763 19-359, desialylated glycans with terminal Gal-beta-1,4-GlcNAc).
T2 sequence (looked up): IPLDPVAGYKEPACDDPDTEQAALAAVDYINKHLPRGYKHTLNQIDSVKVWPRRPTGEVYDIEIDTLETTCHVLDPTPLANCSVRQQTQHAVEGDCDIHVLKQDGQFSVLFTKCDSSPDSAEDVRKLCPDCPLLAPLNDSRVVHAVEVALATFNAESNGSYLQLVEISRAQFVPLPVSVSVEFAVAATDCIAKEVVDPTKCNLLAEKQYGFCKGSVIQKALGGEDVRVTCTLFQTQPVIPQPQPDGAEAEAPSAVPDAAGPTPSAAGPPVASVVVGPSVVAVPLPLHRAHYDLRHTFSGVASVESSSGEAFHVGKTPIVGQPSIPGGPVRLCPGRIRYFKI
In words: affinity chromatography on MOA-Sepharose 4B, PBS wash then elution with 20 mM 1,3-diaminopropane in 0.15 M NaCl, A280 of 1 ml fractions.

The nature of data set [2]: Solubility and activity of salt-free lyophilisates. The format is physicochemical. As for the experimental part: Purification of recombinant MOA and native intact MOA-Recombinant MOA was purified from the soluble fraction by absorption on a column of melibiose-Sepharose and elution by lactose. Further purification was carried out on an affinity column of Synsorb B. Except for the diaminopropane elution, all affinity purifications were carried out in PBS, pH 7.2, containing 1.25 mM EDTA. After purification, lectin solutions were dialyzed against distilled water and lyophilized. […] Intact native MOA was prepared with a purification procedure (Example 2) that utilized a protease inhibitor cocktail (product P8215, Sigma, St. Louis, Mo.) which was added at the level of 0.1 ml/100 ml extract buffer (instead of phenylmethylsulfonyl fluoride), all buffers lacked Ca^++ and contained 1.25 mM EDTA, and the initial extraction and ammonium sulfate fractionations were carried out under an atmosphere of argon.

In the next data set the test system is Human B erythrocytes. In words: Agglutination of cells by Marasmius oreades lectin. The format is cell-based. The procedure: (§1) In some embodiments, blood group specificity of MOA is determined in hemagglutination assays (see Examples below). Briefly, formaldehyde-treated erythrocytes in V-well microtitre plates are used in a protocol as described in Mo et al. [J. Biol. Chem 275:10623 (2000)], herein incorporated by reference. […] Example 3, below, presents the data for agglutination activity against a variety of cell types. […] Biochemistry 22: 5290 (1983)].
(§2) Hemagglutination assays were carried out using formaldehyde-treated erythrocytes in V-well microtitre plates as described by Mo et al. [J. Biol. Chem 275:10623 (2000)], herein incorporated by reference. Titres were recorded as the greatest dilution of the lectin solution yielding visible agglutination. Agglutination of Ehrlich ascites tumor cells (grown in in vitro culture) was observed microscopically.
(§3) Hemagglutination activity was unchanged by extensive dialysis of the lectin and assay in metal-free buffer containing EDTA, indicating the absence of a divatent metal ion requirement. As noted in Example 2, subsequent assays and purifications routinely used metal-free buffers containing EDTA.

The next data set deals with Human O erythrocytes. In words: Agglutination of cells by Marasmius oreades lectin. The class given is cell-based. The following applies: human type O erythrocytes. The procedure:
as §1, §2, §3

The test system of data set [3] is Cultured Ehrlich ascites tumor cells. In words: Agglutination of cells by Marasmius oreades lectin. The class given is cell-based. As for the experimental part: as §1, §2, §3
For another data set, the system named is Human A erythrocytes. In words: Agglutination of cells by Marasmius oreades lectin. The class given is cell-based. Conditions: human type A erythrocytes. The procedure: as §1, §2, §3

B1: Lotus lectin (other, UniProt P19664 1-240, looked up)
chain: VSFNYTEFKDDGSLILQGDAKIWTDGRLAMPTDPLVNNPKTTRSAGRALYATPVPIWDSATGNVASFVTSFNFLFVIRELKYTPTDGLVFFLAPVGTEIPSGSTGGFLGIFDGSNGFNQFVAVEFDSYHNIWDPKSLRSSHVGIDVNSIMSLKAVNWNRVSGSLEKATIIYDSQTNILSVVMTSQNGQITTIYGTIDLKTVLPEKVSVGFSATTGNPEREKHDIYSWSFTSTLKEPEEQA
Turning to B1, in data set [1], the binding result is reported as “no binding”.

B2: Intact native Marasmius oreades agglutinin (MOA) prepared by the method of Example 2 (other)
chain: MSLRRGIYHIENAGVPSAIDLKDGSSSDGTPIVGWQFTPDTINWHQLWLAEPIPNVADTFTLCNLFSGTYMDLYNGSSEAGTAVNGWQGTAFTTNPHQLWTIKKSSDGTSYKIQNYGSKTFVDLVNGDSSDGAKIAGWTGTWDEGNPHQKWYFNRMSVSSAEAQAAIARNPHIHGTYRGYILDGEYLVLPNATFTQIWKDSGLPGSKWREQIYDCDDFAIAMKAAVGKWGADSWKANGFAIFCGVMLGVNKAGDAAHAYNFTLTKDHADIVFFEPQNGGYLNDIGYDSYMAFY
modifications: blocked N-terminus (possibly N-acetyl)
notes: also called native MOA; immobilized MOA
B2: the binding result with Asialofetuin is “no binding”.

B3: Recombinant MOA: MOA expressed in E. coli from a pT7 vector and affinity purified (protein)
chain: B2 chain
In the case of B3, in data set [2] (distilled water or buffer), the “solubility of salt-free lyophilisates” value is on record as “readily soluble”. Also, the “agglutinating activity after lyophilisation” value in data set [2] (redissolved lyophilisates) is listed as “retention of full agglutinating activity”.

B4: MOA: M. oreades lectin (agglutinin) with binding specificity for Galα1,3Gal; single polypeptide of approximately 33 kDa (protein)
chain: B2 chain
For B4, the results for the “hemagglutination activity” value in the data set on Human B erythrocytes, with Human O erythrocytes and with Human A erythrocytes were “Strong”, “very little activity” and “very little activity”, respectively. In data set [3], the “agglutination” value was “readily agglutinated”.
